Measured values published in paper PMC7669825, “Escherichia coli RelA Regulation via Its C-Terminal Domain” (Frontiers in Microbiology, 2020).

Assays:
[1] = biological target: the molecule itself; assay: cross-linking; 10 ul with 12.5 mM Na phosphate pH 7.2, 12.5 mM NaCl, 2.5% glycerol, 1 x 10^-3% glutaraldehyde, 4 ug of protein; 15 min on ice; SDS-PAGE and Western blot with anti-His antibody
[2] = biological target: T1, RelA (Escherichia coli, full length, His-tagged) (Escherichia coli, UniProt P0AG20 1-744); assay: as above; conditions: both partners purified
T1 construct: RelA, (p)ppGpp synthetase of Escherichia coli, 84 kDa, 744 AA (NTD AAs 1-455, CTD AAs 405-744); also called WT RelA; WT-RelA; source: E. coli CF9467 (pQE30-relA), purified (Ni-NTA agarose); not shown: His6, N-terminal, kept
T1 sequence (looked up): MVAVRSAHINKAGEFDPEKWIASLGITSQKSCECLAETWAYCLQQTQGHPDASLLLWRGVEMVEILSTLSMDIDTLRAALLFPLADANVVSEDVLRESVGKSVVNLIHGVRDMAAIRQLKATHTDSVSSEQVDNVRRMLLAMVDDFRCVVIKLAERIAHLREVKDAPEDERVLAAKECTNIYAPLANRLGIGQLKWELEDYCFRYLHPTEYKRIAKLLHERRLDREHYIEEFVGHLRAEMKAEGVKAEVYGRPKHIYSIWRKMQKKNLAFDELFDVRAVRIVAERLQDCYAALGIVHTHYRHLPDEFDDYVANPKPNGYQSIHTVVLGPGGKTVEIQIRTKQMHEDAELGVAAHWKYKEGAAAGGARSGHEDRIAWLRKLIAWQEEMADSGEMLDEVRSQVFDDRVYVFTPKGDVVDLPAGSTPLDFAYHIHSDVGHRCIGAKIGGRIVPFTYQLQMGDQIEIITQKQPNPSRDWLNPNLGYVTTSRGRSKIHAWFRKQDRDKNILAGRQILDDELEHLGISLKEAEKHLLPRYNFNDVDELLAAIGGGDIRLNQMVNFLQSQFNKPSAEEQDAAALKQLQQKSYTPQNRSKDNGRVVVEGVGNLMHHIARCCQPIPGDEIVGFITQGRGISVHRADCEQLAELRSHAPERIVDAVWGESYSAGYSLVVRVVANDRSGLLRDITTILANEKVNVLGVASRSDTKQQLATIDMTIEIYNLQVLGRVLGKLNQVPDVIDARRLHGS

B1: YG4 (fragment of the RelA C-terminal domain, AA 564-744, His-tagged) (domain or fragment, Escherichia coli, UniProt P0AG20 564-744, looked up)
chain: FNKPSAEEQDAAALKQLQQKSYTPQNRSKDNGRVVVEGVGNLMHHIARCCQPIPGDEIVGFITQGRGISVHRADCEQLAELRSHAPERIVDAVWGESYSAGYSLVVRVVANDRSGLLRDITTILANEKVNVLGVASRSDTKQQLATIDMTIEIYNLQVLGRVLGKLNQVPDVIDARRLHGS
notes: RelA of Escherichia coli, AA 564-744 (MW 21 kDa); holds the RIS domain (AA 585-660) and the ACT domain (AA 665-744); also called native YG4; WT-YG4; source: E. coli CF9467 (pYG4), purified (Ni-NTA agarose); not shown: His6, N-terminal, kept
B1: binds [1]; binds [2].
